The target in data set [1] is T1, N-SH2 domain of SHP2 (Homo sapiens, UniProt Q06124).
T1 construct: constructs of the N-SH2 (residues 2-111), C-SH2 (109-217) and PTP (212-528) domains; His6 (esaHis); made in house; host or cells: E. coli (DE3) Rosetta2
T1 sequence (Q06124 2-111): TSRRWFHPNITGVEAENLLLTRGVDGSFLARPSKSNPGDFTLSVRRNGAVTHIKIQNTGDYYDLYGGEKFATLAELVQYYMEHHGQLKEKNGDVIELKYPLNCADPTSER
In words: Fluorescence anisotropy displacement assay. It is filed as binding. As to conditions: for effect of sequence length on the binding affinity: [CF-P9]=1.0 nM, [N-SH2]= 40 nM, relative to P9. Background: In fluorescence polarisation assays a small probe gives low polarisation when free and higher when bound to something large.

Data set [2] has as its target T2, SHP2 PTP domain (SHP2 construct lacking the N-SH2 domain) (Homo sapiens, UniProt Q06124).
T2 construct: the isolated PTP domain preceded by the C-SH2 domain (residues 105-528); His6 (esaHis); made in house; host or cells: E. coli (DE3) Rosetta2
T2 sequence (Q06124 105-528): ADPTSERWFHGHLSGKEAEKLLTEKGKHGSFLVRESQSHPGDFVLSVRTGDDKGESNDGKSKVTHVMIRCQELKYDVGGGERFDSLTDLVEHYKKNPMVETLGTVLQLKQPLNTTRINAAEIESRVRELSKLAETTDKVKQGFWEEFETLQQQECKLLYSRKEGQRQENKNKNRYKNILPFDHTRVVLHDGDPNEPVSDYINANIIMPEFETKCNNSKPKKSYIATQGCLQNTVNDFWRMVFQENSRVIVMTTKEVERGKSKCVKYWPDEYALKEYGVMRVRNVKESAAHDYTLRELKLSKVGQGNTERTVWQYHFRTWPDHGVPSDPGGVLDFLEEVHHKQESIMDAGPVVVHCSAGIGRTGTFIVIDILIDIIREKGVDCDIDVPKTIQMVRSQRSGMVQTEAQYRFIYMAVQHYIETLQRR
Kind of data set: Malachite green phosphatase assay, dephosphorylation of phosphopeptides. It is filed as biochemical. As to conditions: phosphopeptide 100 µM; enzyme 95 nM. As to the method:
A SHP2 construct lacking the N-SH2 domain (i.e. the first 104 residues) was used at a 95 nM concentration. Phosphopeptides were added at a 100 µM concentration and the phosphate released was measured at different times. From the linear region of the phosphate versus time curve, the variation in absorbance at 655 nm in 1 min, due to phosphate released, was calculated and plotted.
The ability of SHP2 to dephosphorylate the phosphopeptides was evaluated through a malachite green phosphatase assay (PTP assay kit 1 Millipore, MA, USA). The BTAM peptide and the following monophosphorylated peptides derived from known SHP2 substrates were used for comparison: DKQVEpYLDLDL (SEQ ID NO:6) (GAB1Y657), EEENIpYSVPHD (SEQ ID NO:7) (p190A/RhoGAPY1105), and VDADEpYLIPQQ (SEQ ID NO:8) (EGFRY1016) (Primm) [Sun et al., 2009; Ren et al., 2011]. SHP2Δ104 or PTP (2.38 pmol) were incubated with 100 µM of each phosphopeptide (total volume 25 µl) for different times. The reaction was stopped by adding 100 µl of malachite green solution. After 15 min, absorbance was read at 655 nm using a microplate reader, and compared with a phosphate standard curve to determine the release of phosphate. Data obtained in the linear region of the curve were normalized on the reaction time (1 min).

The target of data set [3] is T1, N-SH2 domain of SHP2. In words: Fluorescence anisotropy direct binding assay, N-SH2 domain. Conditions: for standard free energy of binding: assuming a 1 M standard state.
Procedure: Anisotropy measurements were carried out using a Horiba Fluoromax 4 spectrofluorimeter.
For the binding assays, the requested peptide amount (1 nM or 0.1 nM) was diluted in buffer (HEPES 10 mM, NaCl 150 mM, EDTA 1 mM, TCEP 1 mM, fluorescence buffer henceforth) and its anisotropy signal was recorded. The peptide was then titrated with increasing protein amounts, until the anisotropy signal reached a plateau at its maximum value, or up to a protein concentration where protein aggregation and consequent light scattering affected the anisotropy values (usually above 1 µM). The measurements of CF-labeled peptides were carried out using an excitation wavelength of 470 nm and collecting the anisotropy values at an emission wavelength of 520 nm. A 495 nm emission filter was used. For the Cy3-labeled peptides, excitation and emission wavelengths of 520 and 560 nm were used.
The Kd values were obtained fitting the data with the following equation, described in Van der Weert 2011, which avoids the need for the commonly used (but often unjustified) approximation of the concentration of unbound protein with the total concentration:
Here, [P]T and [L]T are the total protein and ligand concentrations, while r, ro and rmax are the anisotropy values at a given protein concentration, in the absence of protein and when the peptide is completely bound, respectively.
The test system of data set [4] is T3, P8W5 (LN-pY-IDLDW).
T3 sequence: LNYIDLDW

The test system of data set [5] is T4, p190A/RhoGAP Y1105 phosphopeptide (EEENIpYSVPHD).
T4 sequence: EEENIYSVPHD

The subject of data set [6] is T5, GAB1 Y657 phosphopeptide (DKQVEpYLDLDL).
T5 sequence: DKQVEYLDLDL

Data set [7] has as its system T6, EGFR Y1016 phosphopeptide (VDADEpYLIPQQ).
T6 sequence: VDADEYLIPQQ

Data set [8] has as its system T7, BTAM peptide (PTPNS1 bisphosphotyrosyl-containing motif, with 4 N-terminal G residues).
T7 sequence: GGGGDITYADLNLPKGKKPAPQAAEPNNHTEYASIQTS

Data set [9] deals with T8, P8 (LN-pY-IDLDL).
T8 sequence: LNYIDLDL

Data set [10] concerns the target N-SH2 domain of SHP2 (residues 2-111), recombinant (human) (UniProt Q06124). Kind of data set: fluorescence anisotropy direct binding, labelled peptide titrated with protein.
In data set [11] the target is C-SH2 domain of SHP2 (residues 109-217), recombinant (human) (UniProt Q06124). In words: fluorescence anisotropy direct binding.
Data set [12] shares this target. Kind of data set: fluorescence anisotropy direct binding, labelled peptide titrated with protein.
For data set [13], the system named is NIH3T3 cells. Kind of data set: Peptide toxicity in the cell uptake experiments (Sytox). Conditions: Pep1 at 10 µM. It is filed as cell-based. As to the method: Cell viability in the FACS experiment was determined by using Sytox fluorescence.
Cells were incubated for different times and then washed, collected and stained with SYTOX blue (1 mM, Invitrogen™) to identify the viable population and the green fluorescence of CFP9W5 was recordered to measure peptide uptake. Data were analysed with Kaluza Analysis Software (Beckman Coulter).

The target of data set [14] is T9, N-SH2 domain of SHP2 (residues 2-111), recombinant (human, UniProt Q06124 2-111).
T9 construct: range 2-111; Expressed in E. coli from pET-26b and purified on Ni-NTA
T9 sequence (looked up): T1 sequence (Q06124 2-111)
Kind of data set: fluorescence anisotropy direct binding, labelled peptide titrated with protein.

In data set [15] the target is T10, N-SH2 domain of SHP1, GST fusion on the SH2 domain microarray (human, UniProt P29350 1-106).
T10 construct: domain: N-SH2 domain; Array of 97 human SH2 domains; not shown: GST fusion partner
T10 sequence (looked up): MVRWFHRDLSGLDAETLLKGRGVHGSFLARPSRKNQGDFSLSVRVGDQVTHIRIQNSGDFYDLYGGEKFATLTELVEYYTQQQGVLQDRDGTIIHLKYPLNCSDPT
Kind of data set: SH2 domain microarray (GST fusions on nitrocellulose slides), Cy3 fluorescence.

For data set [16], the target named is T9, N-SH2 domain of SHP2 (residues 2-111), …. Kind of data set: fluorescence anisotropy direct binding.
Procedure: For the binding assays, the requested peptide amount (1 nM or 0.1 nM) was diluted in buffer (HEPES 10 mM, NaCl 150 mM, EDTA 1 mM, TCEP 1 mM, fluorescence buffer henceforth) and its anisotropy signal was recorded. The peptide was then titrated with increasing protein amounts, until the anisotropy signal reached a plateau at its maximum value, or up to a protein concentration where protein aggregation and consequent light scattering affected the anisotropy values (usually above 1 µM). The measurements of CF-labeled peptides were carried out using an excitation wavelength of 470 nm and collecting the anisotropy values at an emission wavelength of 520 nm. […] For the Cy3-labeled peptides, excitation and emission wavelengths of 520 and 560 nm were used.

As usually defined, the IC50 is the concentration that inhibits the measured activity by half. As a reminder, the Ki is the equilibrium dissociation constant of an inhibitor or competing ligand from its target. Low readings indicate higher affinity, high ones lower affinity. The Kd is the free concentration of one partner at which half of the binding sites on the other are occupied at equilibrium, for simple one-to-one binding.

*1 amine or outer side, *2 acyl side, *3 side chain or, on linkers, in order; H or OH if unused. Where a SMILES comes first, the peptide text is derived from it. [ ]: non-standard residue; d: D form. 5,6‑carboxyfluorescein = CF, 5,6-carboxyfluorescein label; CF = 5,6-carboxyfluorescein, N-terminal label; pY = N[C@@H](Cc1ccc(OP(=O)(O)O)cc1)C(=O)O; Cysteamide = C(CS[*:3])N[*:1]

Turning to “N-pY-IDLDL (Ac-N[pY]IDLDL-NH2; SMILES CC[C@H](C)[C@H](NC(=O)[C@H](Cc1ccc(OP(=O)(O)O)cc1)NC(=O)[C@H](CC(N)=O)NC(C)=O)C(=O)N[C@@H](CC(=O)O)C(=O)N[C@@H](CC(C)C)C(=O)N[C@@H](CC(=O)O)C(=O)N[C@@H](CC(C)C)C(N)=O) [Peptide P7]”, in data set [1], the “effect of sequence length on the binding affinity” value was “drastic perturbation of complex stability”.

In [1], `CC[C@H](C)[C@H](NC(=O)[C@H](Cc1ccc(OP(=O)(O)O)cc1)NC(=O)[C@H](CC(N)=O)NC(=O)[C@H](CC(C)C)NC(C)=O)C(=O)N[C@@H](CC(=O)O)C(=O)N[C@@H](CC(C)C)C(=O)N[C@@H](CCC(=O)O)C(=O)N[C@@H](Cc1c[nH]c2ccccc12)C(N)=O` [Peptide P8E4W5, LN-pY-IDLEW] (Ac-LN[pY]IDLEW-NH2) returned an IC50 of 11 ± 1 nM and a Ki of 5 ± 2 nM.

For `CC[C@H](C)[C@H](NC(=O)[C@H](Cc1ccc(OP(=O)(O)O)cc1)NC(=O)[C@H](CC(N)=O)NC(=O)[C@H](CC(C)C)NC(C)=O)C(=O)N[C@@H](CC(=O)O)C(=O)N[C@@H](CC(C)C)C(=O)N[C@@H](CC(=O)O)C(=O)N[C@@H](Cc1c[nH]c2ccccc12)C(N)=O` [Peptide P8W5, LN-pY-IDLDW], the “dephosphorylation by SHP2” value in [2] is “dephosphorylation was indeed observed, although to a lower extent than for other phosphopeptides”.

In [1], `CC[C@H](C)[C@H](NC(=O)[C@H](Cc1ccc(OP(=O)(O)O)cc1)NC(=O)[C@H](CC(N)=O)NC(=O)[C@H](CC(C)C)NC(C)=O)C(=O)N[C@@H](CC(=O)O)C(=O)N[C@@H](CC(C)C)C(=O)N[C@@H](CC(=O)O)C(=O)N[C@@H](Cc1ccccc1)C(N)=O` [Peptide P8F5, LN-pY-IDLDF] (Ac-LN[pY]IDLDF-NH2) yielded an IC50 of 16 ± 1 nM and a Ki of 9 ± 2 nM.

“CF-GLN-pY-IDLDL ({5,6‑carboxyfluorescein}-GLN[pY]IDLDL-NH2) [CF-P9]”: the “standard free energy of binding” value in data set [3] is -9.94 ± 0.024 kcal/mol.

With “SHP2Δ104 (SHP2 construct lacking the N-SH2 domain, residues 105-528)”, the “dephosphorylation of the phosphopeptide (malachite green phosphate release)” value in data set [4] is “dephosphorylation was indeed observed, although to a lower extent than for other phosphopeptides”; in data set [5], “dephosphorylation was indeed observed, although to a lower extent than for other phosphopeptides”; in data set [6], “dephosphorylation was indeed observed, although to a lower extent than for other phosphopeptides”; in [7], “dephosphorylation was indeed observed, although to a lower extent than for other phosphopeptides”; in data set [8], “dephosphorylation was indeed observed, although to a lower extent than for other phosphopeptides”; in [9], “dephosphorylation was indeed observed, although to a lower extent than for other phosphopeptides”.

Consider CF-P9E4W5 (CF-GLN-pY-IDLEW) (peptide), for which, in data set [10], the Kd amounted to 8.2 nM.

With “CF-GLN- Y-IDLDL ({5,6‑carboxyfluorescein}-GLNYIDLDL-NH2) [CF-P9Y0]”, in [3], the “standard free energy of binding” value is -7.07 ± 0.048 kcal/mol. In addition, the “affinity lower than phosphorylated peptide” value in data set [3] (unphosphorylated vs phosphorylated labeled peptide) was “approximately 100 times”.

In the case of `CC[C@H](C)[C@H](NC(=O)[C@H](Cc1ccc(OP(=O)(O)O)cc1)NC(=O)[C@H](CC(N)=O)NC(=O)[C@H](CC(C)C)NC(C)=O)C(=O)N[C@@H](CC(=O)O)C(=O)N[C@@H](CC(C)C)C(=O)N[C@@H](CC(=O)O)C(=O)N[C@@H](CC(C)C)C(N)=O` [Peptide P8, LN-pY-IDLDL] (Ac-LN[pY]IDLDL-NH2), the “dephosphorylation by SHP2” value in [2] is given as “dephosphorylation was indeed observed, although to a lower extent than for other phosphopeptides”. In addition, in data set [1], the IC50 was found to be 47 ± 4 nM, the Ki was determined as 25 ± 4 nM and the “effect of sequence length on the binding affinity” value was “No significant loss in affinity”.

Regarding CF-P9W5 (CF-GLN-pY-IDLDW) (peptide), the fold lower affinity than for the N-SH2 domain in [11] came out at 1000 fold. In addition, the Kd in data set [10] was 4.6 nM; in data set [12], 4200 nM.

With `CC(=O)N[C@@H](CCCCN)C(=O)N[C@@H](CCC(=O)O)C(=O)N[C@H](C(=O)N[C@@H](Cc1c[nH]c2ccccc12)C(=O)N[C@@H](Cc1c[nH]c2ccccc12)C(=O)N[C@@H](CCC(=O)O)C(=O)N[C@H](C(=O)N[C@@H](Cc1c[nH]c2ccccc12)C(=O)N[C@@H](Cc1c[nH]c2ccccc12)C(=O)N[C@H](C(=O)N[C@@H](CCC(=O)O)C(=O)N[C@@H](Cc1c[nH]c2ccccc12)C(=O)N[C@@H](CO)C(=O)N[C@@H](CCC(N)=O)C(=O)N1CCC[C@H]1C(=O)N[C@@H](CCCCN)C(=O)N[C@@H](CCCCN)C(=O)N[C@@H](CCCCN)C(=O)N[C@@H](CCCNC(=N)N)C(=O)N[C@@H](CCCCN)C(=O)N[C@H](C(=O)NCCS)C(C)C)[C@@H](C)O)[C@@H](C)O)[C@@H](C)O` [Pep1, reference compound] (Ac-KETWWETWWTEWSQPKKKRKV-Cysteamide), the toxicity result in data set [13] was “negligible”.

On to {CF}-GLN[pY]IDLDL-NH2 [CF-P9 (CF-GLN-pY-IDLDL), fluorescently labeled IRS-1 pY1172 peptide analog], for which the Kd in [14] was determined as 53 nM.

B1: Cy3-P9W5 (Cy3-GLN-pY-IDLDW) (peptide)
peptide: XGLNYIDLDW
modifications: phosphotyrosine (pY) at position 4; N-terminal Cyanine 3 carboxylic acid (Cy3); C-terminal amide
With B1, in [10], the Kd was 23 nM. In addition, the binding result in data set [15] is “no binding (tested: peptide at 0.5, 5.0 and 50 nM)”.

As for {CF}-GLNYIDLDL-NH2 [CF-P9Y0 (CF-GLN-Y-IDLDL), unphosphorylated analog of the labeled IRS-1 pY1172 peptide], in data set [16], the “fold lower affinity than the phosphorylated peptide CF-P9” value was about 100 fold. The Kd in data set [14] was 6600 nM.

Values taken from patent publication US20230192765A1, “PEPTIDES TARGETING SHP2 AND USES THEREOF” (UNIVERSITÀ DEGLI STUDI DI ROMA "TOR VERGATA", priority 2020, published 2023).
